# According to the nanobody polyreactivity screen of Harvey et al. (2022):
# Assay: yeast display, Sf9 membrane polyspecificity reagent, FACS + sequencing; frameworks hold sequencing errors
# Outline: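 Nanobodies from a synthetic yeast display library (Saccharomyces cerevisiae BJ5465), induced 36–48 hours with galactose, were stained 1 hour at 4 °C with 10% biotinylated, detergent-solubilized Sf9 membrane reagent, enriched on streptavidin microbeads, then FACS-sorted. Anti-HA (expression) and streptavidin (reagent binding) fluorescence set low and high (top ~1%) gates. Polyreactivity labels come from the gate of origin. Genes were colony-PCR amplified, MiSeq 2 × 250 sequenced and filtered by CDR length.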
row,Sequence,polyreactivity (PSR sort gate)
1,QFQLEESVGGLVQAGGSLRLSCAASGFTFKSYAMGWYRQATVNVREFVARITYSGGGTYYADSVKGRFTISRDNAKNTVYLLMNSLKPEDTAVYYCARPFNRYLGLTRNGYTSDYWGQGTQVTVSS,high polyreactivity
2,QFQLGESGGGLVQAGGSLRLSCAACGSTFYLYAMGWYRQAPGKDRELVAAISKSCGSTYYADSVKGRFTISRDNAKNTVYLQMNSLKPEVTAVYYCATRWIKGRKMDYWGQGTQVTVSS,high polyreactivity
3,QFQLGESGGGLVQAGGSLRLSCAASGYIFKKNAMGWYRQAPGYERELVAVISARGGRTYYADSVKGRFTISRDKGKNTVYLQMNSLKPEDTAVYYCAAVSLGITYDYWGQGTQVTVSS,low polyreactivity
4,QFQLVESCGGLVQAGGSLRLSCAASGSIFYYYVMGWYRQAPGKEREFVAAISWRGDSTYYADSVKGRFTISRDNAKNTVYLQMNSLKPEDTAVYYCNADYPWSVVGYDYLGQGTQVTVSS,low polyreactivity
5,QFQLVESGGGIVQAGGSLRLSCAASGRTIYQYAMGWYRESPANERELVAAISRSGTSTYYADSVKGRFTISRDNAKNTVYLQMNSLKPEDTAVYFCAARYVSKYNYPSPEMYYWGQGTKVTVSS,high polyreactivity
6,QFQLVESGGGLVHAGGSLRLICAASGRTFVYNAMGWYRQAPGKERDLVAAISFGGGNTYYADSVKGRFTISRDNAKNTVYLQMNCLKPEDTAVYYCAKAYIGYWGASCYYAYDYWGQGTQVTVSS,low polyreactivity
7,QFQLVESGGGLVQAGGRLRLSCAASGYTFYSYAMGWSRQAPGKERELVASITRRVGGTYYADSVKGRFTISRDNAKKTVYLQMNSLKPEDTAVYYCAAGYYHKKSSTDIEKYWGQGTQLTVSS,low polyreactivity
8,QFQLVESGGGLVQAGGSLRLICDASGSIFYPYTIGWYRQAPWKERQLVAAITWDGGNTYYADSVKGRFTISRDNAKNTVYLQMNSLKREDTAVYYCAAVTSGWGTYRMYYWGQGTQETVSS,high polyreactivity
9,QFQLVESGGGLVQAGGSLRLSCAASGCIFLYYAMGSYRPATGNERELVASISSGGSTNYADSVKGRFTISRDNAKNTVYLQMNSLKPEDTAVYYCAARPYGGGRRSIYYYWGQGTQVTESS,high polyreactivity
10,QFQLVESGGGLVQAGGSLRLSCAASGFTFWLYAMGWYRQAPGKEREFVAAISTSGGSTYADSVKGRFTISRDNAKNTVYLHMNSLKPEDTAVYYCNAGYLLYYDYHLFYWGQGTQVTVSS,low polyreactivity
11,QFQLVESGGGLVQAGGSLRLSCAASGGTFGWNAMGLYRQAPGKERELVAAITSSGGDTYYADSVKGRFTISRDNAKNTVYLQMNSLKPEDTAVYYCAAEDGRQYGYWGQGTQVTVSS,low polyreactivity
12,QFQLVESGGGLVQAGGSLRLSCAASGGTFYSNAMGCYRQAPGKERDLVATITGGGRTYYADSVKGRFTISRDNAKNTVYLQMNSLKPEDNAVYYCAVRGYHQYKYGYWGQGTQVNVSS,high polyreactivity
13,QFQLVESGGGLVQAGGSLRLSCAASGITFVYYAMGGYRQAPGKERELVAAISRGGTSTYYADSVKGRFTISRDNAKNTVYLHMNSLKPEDTAVYYCNARYPKSYRTNYYYWGQGTQVTVSS,high polyreactivity
14,QFQLVESGGGLVQAGGSLRLSCAASGLIFAYNAKGWSRQATGKERELVAAITGGGDGTYYADSVKGRFTISRDNAKYTVYLQMNSLKPEDTAVYYCAADYKYVGSEYGYWGQGTQVTVSS,low polyreactivity
15,QFQLVESGGGLVQAGGSLRLSCAASGLTFVAYAMGWYRQAPGKEMELVAAITRRGGSTYYADSVKGRFTISRDNEKNPVSLQMNSLKPEDTAVYYCAAEGWYSRNPGFDYWGQGTQVTVSS,high polyreactivity
16,QFQLVESGGGLVQAGGSLRLSCAASGRIFCRYAMGWYRQAPGKETELVPVISARGARTYYEDSVKGRFTISRDNAKYTVYLQMNSLKPEDTAVYYCNKVGVLSGYYYPHASGDYWGQGTQVTVSS,high polyreactivity
17,QFQLVESGGGLVQAGGSLRLSCAASGRIFDFYAMGWYREAPGKERELVAAISWRGGSTYYAHSVKGRFTISRDNAKNTVYLQMNSLKPEDTAVYYCATRFGPRYYWGQGTQVTVSS,low polyreactivity
